Legend:
[1] = molecular target: CD19 antigen on ALL cells (REH cell line, primary ALL blasts) (human) (UniProt P15391); test: cell-based or functional assay
[2] = molecular target: CD123 antigen on AML cells (THP-1 cell line, primary AML blasts) (human) (UniProt P26951); test: cell-based or functional assay
Sequence of UniProt P26951 (P26951 19-378): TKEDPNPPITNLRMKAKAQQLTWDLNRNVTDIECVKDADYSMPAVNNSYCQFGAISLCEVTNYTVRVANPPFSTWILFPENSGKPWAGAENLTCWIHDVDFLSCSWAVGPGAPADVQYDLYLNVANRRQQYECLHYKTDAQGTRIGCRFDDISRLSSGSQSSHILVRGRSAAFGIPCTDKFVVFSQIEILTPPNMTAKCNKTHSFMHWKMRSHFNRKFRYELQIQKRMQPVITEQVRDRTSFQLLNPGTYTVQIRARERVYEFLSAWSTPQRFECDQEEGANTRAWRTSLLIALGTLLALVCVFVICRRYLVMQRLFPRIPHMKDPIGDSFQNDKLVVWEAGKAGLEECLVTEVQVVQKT

Sequence of UniProt P15391 (P15391 20-556): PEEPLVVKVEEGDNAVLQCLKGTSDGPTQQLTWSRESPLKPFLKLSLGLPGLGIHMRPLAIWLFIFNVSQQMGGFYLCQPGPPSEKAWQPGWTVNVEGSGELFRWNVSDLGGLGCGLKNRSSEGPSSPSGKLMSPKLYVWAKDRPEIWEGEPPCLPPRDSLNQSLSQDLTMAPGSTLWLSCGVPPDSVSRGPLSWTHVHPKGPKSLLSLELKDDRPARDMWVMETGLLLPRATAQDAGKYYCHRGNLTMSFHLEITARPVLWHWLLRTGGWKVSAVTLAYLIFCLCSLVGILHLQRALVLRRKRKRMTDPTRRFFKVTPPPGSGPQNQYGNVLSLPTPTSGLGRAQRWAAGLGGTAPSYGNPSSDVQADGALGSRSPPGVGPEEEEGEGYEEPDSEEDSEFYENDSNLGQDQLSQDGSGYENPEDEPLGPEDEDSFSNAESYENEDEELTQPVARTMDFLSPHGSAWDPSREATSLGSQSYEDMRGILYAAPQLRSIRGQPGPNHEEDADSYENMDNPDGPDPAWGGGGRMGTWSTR

Row | Substance | lysis of ALL primary blasts by CD19·CAR+ CIK cell populations (cytotoxic assay) [1] [%] | lysis of REH ALL cell line by CD19·CAR+ CIK cell populations (cytotoxic assay) [1] [%] | lysis of AML primary blasts by CD123·CAR+ CIK cell populations (cytotoxic assay) [2] [%] | lysis of THP-1 AML cell line by CD123·CAR+ CIK cell populations (cytotoxic assay) [2] [%]
1 | CD19·CAR (anti-CD19 chimeric antigen receptor: VL and VH of clone FMC63 in frame with CH2CH3-CD28-OX40-ζ), expressed on CIK cells (from UniProt P10747 153-220; P43489 242-277; P20963 52-163) | 56.8 | 80 |  | 
2 | CD123·CAR (anti-CD123 chimeric antigen receptor: scFv from mAb 7G3 in frame with CH2CH3-CD28-OX40-ζ), expressed on CIK cells (from UniProt P10747 153-220; P43489 242-277; P20963 52-163) |  |  | 60 | 85
